The results in this text go back to patent US20210395392A1 (Bristol-Myers Squibb, published 2021).

Assay [1] has as its target T1, Recombinant soluble extracellular domain of mouse MerTK (mouse, UniProt Q60805 19-497).
T1 construct: SPR analyte; also called mMerTK
T1 sequence: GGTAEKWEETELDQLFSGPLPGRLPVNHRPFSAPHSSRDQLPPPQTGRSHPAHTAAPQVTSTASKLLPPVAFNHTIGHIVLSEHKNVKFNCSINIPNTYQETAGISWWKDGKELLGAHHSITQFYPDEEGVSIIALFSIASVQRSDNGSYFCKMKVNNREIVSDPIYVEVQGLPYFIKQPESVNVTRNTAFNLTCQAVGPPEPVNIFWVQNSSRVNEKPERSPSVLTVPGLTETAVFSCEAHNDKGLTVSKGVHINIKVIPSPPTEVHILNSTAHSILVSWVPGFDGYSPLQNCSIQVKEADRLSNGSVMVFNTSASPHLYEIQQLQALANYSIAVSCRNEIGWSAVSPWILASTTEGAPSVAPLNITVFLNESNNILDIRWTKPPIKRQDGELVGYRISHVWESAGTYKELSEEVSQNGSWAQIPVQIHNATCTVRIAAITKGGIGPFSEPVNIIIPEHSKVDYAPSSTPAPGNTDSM
Put plainly: summary sentence of the description; assay not named.

The target of assay [2] is T2, Recombinant soluble extracellular domain of cynomolgus monkey MerTK (cynomolgus monkey, UniProt Q12866 21-505 (human entry)).
T2 construct: SPR analyte; also called cMerTK; Cynomolgus MerTK
T2 chain: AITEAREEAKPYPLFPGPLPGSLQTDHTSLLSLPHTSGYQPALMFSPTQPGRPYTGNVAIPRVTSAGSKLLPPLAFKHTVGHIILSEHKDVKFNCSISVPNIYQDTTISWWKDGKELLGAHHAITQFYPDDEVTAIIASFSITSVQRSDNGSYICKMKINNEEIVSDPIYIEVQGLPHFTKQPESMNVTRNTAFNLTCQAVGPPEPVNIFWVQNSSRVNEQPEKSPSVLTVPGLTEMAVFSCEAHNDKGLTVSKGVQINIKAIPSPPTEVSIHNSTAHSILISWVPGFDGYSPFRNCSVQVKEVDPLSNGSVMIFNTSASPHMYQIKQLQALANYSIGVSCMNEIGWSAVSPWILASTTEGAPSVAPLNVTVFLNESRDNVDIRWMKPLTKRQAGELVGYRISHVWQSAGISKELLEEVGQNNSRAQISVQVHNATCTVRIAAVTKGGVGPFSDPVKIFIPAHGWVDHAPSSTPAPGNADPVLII
Put plainly: SPR, mAb captured, soluble MerTK ECD as analyte, 37 C. On the procedure: MerTK Abs were captured on the chip. Recombinant soluble forms of the extracellular domains of human, cynomolgus monkey, and mouse MerTK polypeptide were injected as analytes at multiple concentrations each. The resulting sensorgrams were double-referenced and fitted to a 1:1 Langmuir binding model with mass transport.
A general note: In SPR one partner is held on a chip, and binding of the other changes the refractive index at the surface.

Assay [3] addresses T3, Mouse MerTK on mMerTK-expressing cells (mouse, UniProt Q60805 19-994).
T3 sequence: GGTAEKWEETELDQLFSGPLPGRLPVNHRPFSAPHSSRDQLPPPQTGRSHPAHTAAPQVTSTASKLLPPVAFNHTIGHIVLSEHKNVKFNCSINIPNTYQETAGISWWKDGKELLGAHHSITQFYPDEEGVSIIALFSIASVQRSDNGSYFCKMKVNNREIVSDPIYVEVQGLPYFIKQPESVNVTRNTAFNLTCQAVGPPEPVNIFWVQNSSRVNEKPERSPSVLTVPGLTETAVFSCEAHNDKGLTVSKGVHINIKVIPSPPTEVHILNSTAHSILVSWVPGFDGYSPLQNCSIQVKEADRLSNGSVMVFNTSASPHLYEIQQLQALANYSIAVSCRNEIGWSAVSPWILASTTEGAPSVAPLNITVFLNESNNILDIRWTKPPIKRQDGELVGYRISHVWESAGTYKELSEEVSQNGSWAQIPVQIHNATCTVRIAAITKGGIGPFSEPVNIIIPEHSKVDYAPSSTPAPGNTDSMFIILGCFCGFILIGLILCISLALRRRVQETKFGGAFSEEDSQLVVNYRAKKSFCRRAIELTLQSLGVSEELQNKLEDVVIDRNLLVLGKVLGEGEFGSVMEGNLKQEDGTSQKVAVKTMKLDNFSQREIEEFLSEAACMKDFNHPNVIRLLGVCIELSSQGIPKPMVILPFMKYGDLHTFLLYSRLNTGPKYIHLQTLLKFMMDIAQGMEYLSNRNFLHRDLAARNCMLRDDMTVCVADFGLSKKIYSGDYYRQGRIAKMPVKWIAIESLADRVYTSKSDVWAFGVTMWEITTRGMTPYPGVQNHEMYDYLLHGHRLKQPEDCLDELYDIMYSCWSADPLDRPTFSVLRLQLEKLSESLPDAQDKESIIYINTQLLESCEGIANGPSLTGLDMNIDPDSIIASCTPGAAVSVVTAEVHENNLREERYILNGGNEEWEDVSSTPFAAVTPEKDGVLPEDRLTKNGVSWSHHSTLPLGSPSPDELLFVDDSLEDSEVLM
Kind of assay: cell-based or functional assay.

B1: HuMAb 1B4 (antibody, human IgG1, kappa, V domains shown)
VH: QLQLQESGPGLVKPSETLSLTCAVSGYSISSGNYWGWIRQSPGKGLEWIGSVDHSGSTYYSPSLKSRVTISVDTSKNQFSLKLNSVTAADTADYYCARNTMIRGVMDWFDPWGQGTLVTVSS
VL: AIQLTQSPSSLSASVGDRVTITCRASQGISSALAWYQQKPGKAPKVLIYDASSLESGVPSRFSGSGSGTDFTLTISSLQPEDFATYYCQQFRSYPTFGQGTKVEIKR
notes: Human anti-hMerTK mAb, Bin 1
For the molecule B1, in assay [1], the binding result is “no binding”. For the same molecule, in assay [2], the Kd (in general, the constant that tells how readily two partners part at equilibrium) is 54.9 nM; the koff (in general, the rate constant with which the complex falls apart) is 0.00796 s⁻¹; the kon (as a rule, the rate constant with which the complex forms) came to 145000 M⁻¹ s⁻¹; the t1/2 came out at 1.5 min. The “Signaling Assay, mMerTK with Gas6, pSTAT1 IC50 (nM)” value in assay [3] is more than 100 nM.

B2: HuMAb 22I16 (antibody, human IgG1, kappa, V domains shown)
VH: EVQLVESGGGLVQPGGSLRLSCAASGFTFSSYSMNWVRQAPGKGLEWVSYIISGSDTIFYADSVKGRFTISRDNAKNSLYLQMNSLRDEDTAVYYCARDETVVRGVINYFDYWGQGTLVTVSS
VL: AIQLTQSPSSLSASVGDRVTITCRSSQGISSALAWYQQKPGKAPKLLIYDASSLESGVPSRFSGSGSGTDFTLTISSLQPEDFATYYCQQFISYPTFGQGTRLEIKR
notes: Human anti-hMerTK mAb, Bin 1; also called 22116
As to B2, the binding result in assay [1] is listed as “no binding”. Further, in assay [2], the Kd was found to be 24.7 nM, the koff was found to be 0.00126 s⁻¹, the association rate constant (kon) amounted to 50900 M⁻¹ s⁻¹ and the t1/2 is 10.2 min.

B3: HuMAb 4K10 (antibody, human IgG1, kappa, V domains shown)
VH: QVQLQQWGAGLLKPSETLSLTCAVYGGSFSGYYWSWLRQPPGKGLEWIGEISHSGSTNYNPSLKSRVTISVDTSKNQFSLKLSSVTAADTAVYYCARALSRYWYFDLWGRGTLVTVSS
VL: EIVLTQSPATLSLSPGERATLSCRASQSASNYLAWYQQKPGQAPRLLIYDASNRATGIPARFSGSGSGTDFTLTISSLEPEDFAVYYCYQRSQWPISFGQGTRLEIKR
notes: Human anti-hMerTK mAb, Bin 3
On to B3, for which the binding result in assay [1] is recorded as “no binding”. Also, in assay [2], the Kd amounted to 31.3 nM, the koff came out at 0.00379 s⁻¹, the kon turned out to be 121000 M⁻¹ s⁻¹ and the t1/2 was 3 min.

B4: HuMAb 25J60 (antibody, human IgG1, kappa, V domains shown)
VH: QVQLVQSGAEVKKPGASVKVSCKTSGNTQIRYYMYWVRQAPGQGLEWMGILNPNQDQTTYAQKFQGRVTMTRDTSTSTVYMELSSLRSEDTAVYYCATTYRYYMDVWGQGTTVTVSS
VL: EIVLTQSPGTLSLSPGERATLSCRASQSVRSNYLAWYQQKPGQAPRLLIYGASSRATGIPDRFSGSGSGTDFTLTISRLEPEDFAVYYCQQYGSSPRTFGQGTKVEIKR
notes: Human anti-hMerTK mAb, Bin 2, derived from HuMAb 25B10 by optimization
B4: the binding result in assay [1] is recorded as “no binding”. In assay [2], the Kd was determined as 2.5 nM, the koff worked out at 0.00099 s⁻¹, the kon is 400000 M⁻¹ s⁻¹ and the t1/2 stood at 11.7 min.

B5: HuMAb 25J80 (antibody, human IgG1, kappa, V domains shown)
VH: QVQLVQSGAEVKKPGASVKVSCKTSGRTFIRYYMHWVRQAPGQGLEWMGIIWPNGDQTTYAQKFQGRVTMTRDTSTSTVYMELSSLRSEDTAVYYCATTYKYAMDVWGQGTTVTVSS
VL: EIVLTQSPGTLSLSPGERATLSCRASQSVRSNYLAWYQQKPGQAPRLLIYGASSRATGIPDRFSGSGSGTDFTLTISRLEPEDFAVYYCQQYESPPRTFGQGTKVEIKR
notes: as for B4
As for B5, in assay [1], the binding result is on record as “no binding”. Further, in assay [2], the Kd was determined as 4.5 nM, the koff is 0.00124 s⁻¹, the kon was found to be 274000 M⁻¹ s⁻¹ and the t1/2 turned out to be 4.5 min.

B6: HuMAb 8N42 (antibody, V domains shown)
VH: QVQLQQWGAGLLKPSETLSLTCAVYGGSFSIYYWSWIRQPPGKGLELIGEINDEGNTNYNPSLKSRVTISVDTSKNQFSLKLSSVTAADTAVYYCARGGTGDIHAFDIWGQGTMVTVSS
VL: DIQMTQSPSSLSASVGDRVTITCRASQGISKWLAWYQQKPEKAPKSLIYAASSLQSGVPSRFSGSGSGTDFTLTISSLQPEDFATYYCQQYNSYPWTFGQGTKVEIKR
notes: Human anti-hMerTK mAb, Bin 1
As to B6, the binding result in assay [1] is “no binding”. Also, in assay [2], the Kd was 14 nM, the koff was 0.0014 s⁻¹, the kon was 100000 M⁻¹ s⁻¹ and the t1/2 is 8.3 min.
